Test results as given in the supplement of paper PMC12042874.
± gives the uncertainty stated by the source.

Experiment: amyloid nucleation score (Sup35N fusion, yeast selection) (log enrichment); library NNK3; higher = more nucleation; inactive = no reads after selection
Procedure, shortened: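 Nucleation score is defined as the DiMSum log enrichment of output over input reads, with centring on the mode score of non-aggregating sequences. A minimum of 100 input reads was required for each sequence. Reads came from Illumina sequencing of plasmid inserts from psi-negative yeast expressing Sup35N fused to peptides of 20 random codons, induced with 100 μM copper sulfate for 24 hours and grown 7 days at 30°C on medium lacking adenine and uracil.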

Row | Substance | amyloid nucleation score
1 | TRQNWENNFLLWYGEVMS | inactive
2 | TRSNRRHVRVT | inactive
3 | TRVIRLGGMALSFVFTIISC | inactive
4 | TRVLSTSGFNQRPNCWFSTM | inactive
5 | TRWGCSSSSNFGCFDDKRRL | inactive
6 | TRWLCLDKLHLFLLCGKIAI | inactive
7 | TRYIIMCPILCRSEMVLPVR | inactive
8 | TSCGISSSAGFSVFMSEGAK | 0.692 ± 0.13
9 | TSCLNKKHAVGFSCVFYH | inactive
10 | TSDSMSLNFVTWVNQI | inactive
11 | TSDVEVSRMIVCIWTSFIYQ | 0.142 ± 0.52
12 | TSERLMVSQITAHILGFHEI | inactive
13 | TSETRPIGDA | inactive
14 | TSFSYNLGTISDRCVWILAD | -0.116 ± 0.9
15 | TSILMPASDVLKMQVVPWLS | 0.904 ± 0.16
16 | TSILPRSGANVKQLLLVLFV | inactive
17 | TSIMSKGGGSYLSWNWHGWL | inactive
18 | TSPPGRIDMQTSWDMFYADE | inactive
19 | TSRHVLR | -0.187 ± 0.66
20 | TSVCSHSEVCGWSYYTDLLS | inactive
21 | TTCILYPYLWCLMIHMSASN | 0.891 ± 0.16
22 | TTDGFRVRSTLYNYICVWRY | inactive
23 | TTEMWKALACPSHRTTRPCS | inactive

Row | Substance | amyloid nucleation score
24 | TTIYSEVLFRDHCVWQYPDR | inactive
25 | TTMRSIPRGRRT | inactive
26 | TVASYVNCKRFVLWNYWLFS | inactive
27 | TVDNHGSA | inactive
28 | TVEKTWKTVYIYKDSVTLRN | 1.33 ± 0.12
29 | TVFCLVKFRLEFYVTMPEYC | inactive
30 | TVFDWLMHQMNC | inactive
31 | TVHAYLFCGTAVMTVRSSVV | inactive
32 | TVHNKMPHRLWNCTTLE | inactive
33 | TVHSIDRVVIIHRLMND | 0.235 ± 0.35
34 | TVSCLLKKVSRIVTVCVEWD | inactive
35 | TVSYRTTIWWRSINFNRRAL | inactive
36 | TVTCRVQRHLDLN | inactive
37 | TVVMIFLISYNFF | 1.7 ± 0.1
38 | TVVRNGIKTVYGLVDCVDS | inactive
39 | TVWKGIREYSRS | inactive
40 | TWAWPGRYYQWLQLQLGLNK | inactive
41 | TWFYQ | inactive
42 | TWGCYLLISNI | inactive
43 | TWGIG | inactive
44 | TWISITWTWPWKKWVLNLRY | inactive
45 | TWLRSYMLYYVVWFF | inactive
46 | TWNGMWFVLSSL | inactive

Row | Substance | amyloid nucleation score
47 | TWNVPWE | inactive
48 | TYAIGLHMLGSMGKIPDWEQ | 1.25 ± 0.14
49 | TYAIYVDSGIFLEVHGNLYM | 2.64 ± 0.08
50 | TYCYTVVTASMDAFEG | inactive
51 | TYFDFVLYV | inactive
52 | TYFILSDCQASNIFSPMSDE | 0.478 ± 0.14
53 | TYFMRPSNYHVLSLGAG | inactive
54 | TYGGMSQSNLLRWCCFAWMY | inactive
55 | TYGQLCIKVTGLGHFYRPMG | 0.922 ± 0.18
56 | TYIPFIIYLIGCVLVYVYVL | inactive
57 | TYIRGQRCDIQMETWMTLCS | inactive
58 | TYLALGLSSSMLRESLKWEV | inactive
59 | TYLCGFHLYCC | inactive
60 | TYLIYGGG | inactive
61 | TYQSVDTVLSSVT | inactive
62 | TYSGRIKLFLCWMLILSNGT | inactive
63 | TYSGRSKSILTGSID | inactive
64 | TYSRFEISCMCWASYTIK | 0.775 ± 0.22
65 | TYTYCTLNSLTDSRSETILV | inactive
66 | TYVARIVN | inactive
67 | TYVGVYALIF | -1.12 ± 1.5
68 | TYYTGQLNVTEVVFLYISGS | 1.96 ± 0.069
69 | VAALFKGKAVSCGGFSFFN | -0.076 ± 0.54

Row | Substance | amyloid nucleation score
70 | VALWWTVMYRFFMALTFIMQ | inactive
71 | VAPGDPNMIGHGLHVFTTTL | -0.498 ± 0.83
72 | VAPWKKPLPMKVTSAQFPNR | inactive
73 | VASCMTGWLILDETMSSFKL | -0.746 ± 0.98
74 | VASVIL | inactive
75 | VCCSVSVAWKSWAHT | 1.28 ± 0.13
76 | VCFDSVAMDNHDYPCVTRYM | inactive
77 | VCFGWSNSFSAWT | inactive
78 | VCGLLL | inactive
79 | VCHKCCDRIQSLVGVRGHQE | inactive
80 | VCKLVTYSYLLVREPRSADS | inactive
81 | VCKMSNMFNSFCYYASQFCY | inactive
82 | VCKVCFVERSCVVVVNV | 1.8 ± 0.067
83 | VCQESPSEIGES | inactive
84 | VCRDSVILLDLLGAMCVVYG | inactive
85 | VCRFPRFFWTCYSDVLHCFS | inactive
86 | VCTVQCFEKIEL | inactive
87 | VDEYVLWVSYYPWWYRVNTV | inactive
88 | VDFLCNPWVERINGYVWEVV | inactive
89 | VDINRFMEPLSCVRCCDDSC | inactive
90 | VDKWDCLSYSNIVGLMRLDV | inactive
91 | VDLGRWFSSGFVWLGYKDIF | inactive
92 | VDNHAFKAFKHLGSSLMADR | inactive

Row | Substance | amyloid nucleation score
93 | VDNHPDFFLNLESVLINVDH | inactive
94 | VDSILAMGRGAYVID | inactive
95 | VDSWSRGQVSQLGRSQWADI | 0.68 ± 0.31
96 | VDVERIQFRSICLCLSTFCV | 1.53 ± 0.081
97 | VDVLFC | inactive
98 | VDVQVINLAFETFECCAFIK | 0.82 ± 0.16
99 | VDVYLDYDIAMQPGVYALWR | inactive
100 | VEDKCVWFV | inactive
101 | VEMATKLQVKVIERALNEGD | inactive
102 | VENRYVIINSRVMGD | inactive
103 | VEPRWNRLVGNHVCSFDGNV | inactive
104 | VEPYRVLYRNGR | inactive
105 | VESRRRLRVEVGFSRVDT | 0.077 ± 0.79
106 | VFEDNDLCELINDVILEHHR | inactive
107 | VFFTHATVLSKSYFNLERLV | 0.426 ± 0.33
108 | VFHWSKLSFVEYHGKCGRSS | inactive
109 | VFIKLPVRSS | -0.192 ± 0.96
110 | VFIPVASVIKWGSFKP | 0.65 ± 0.21
111 | VFKFALFTGTLLWLDHCVVS | 1.51 ± 0.14
112 | VFLSAVAGDYIV | inactive
113 | VFLSIMSSFEWALYLL | inactive
114 | VFRAGILESWHRWEGLGVVL | inactive
115 | VFRAGWPVWALDYELYSVRA | inactive

Row | Substance | amyloid nucleation score
116 | VFSNSGAETVLGLSKGWSDV | -0.542 ± 0.96
117 | VFTNGRSYISRMISYYKYCR | inactive
118 | VFTYCYVFHQVVSLRQARLR | inactive
119 | VFVMPDDNVC | inactive
120 | VGAKRFPYVYWAYGSYVFAD | inactive
121 | VGCLGGRSTSSRWSSLRLLV | inactive
122 | VGFCNGIGVVMGRPAKCSWR | -0.06 ± 1.1
123 | VGFKSCS | inactive
124 | VGFPESPFDSLCAMCALQWV | inactive
125 | VGIIVFLIAFHYYKRSMYWD | inactive
126 | VGLIRCLVDVKLI | inactive
127 | VGLNQSLNRWPTSSSQHMGG | inactive
128 | VGNFLTLSVWDNSGRRIGEE | 0.705 ± 0.19
129 | VGNFTWICKI | 2.48 ± 0.056
130 | VGNNWS | inactive
131 | VGQTCFTIMMVV | inactive
132 | VGRHDNGVSDFAMTSSWVFF | inactive
133 | VGRNECARRMVLRKWWLYLV | inactive
134 | VGTDDVIICILSVKFPLIRP | inactive
135 | VGVSISLSRARWGQIAMEET | 1.05 ± 0.2
136 | VHGKWIDRRYNVISRPLGGG | inactive
137 | VHLSRWYVN | inactive
138 | VHVYFRLADL | 1.3 ± 0.14

Row | Substance | amyloid nucleation score
139 | VHYGNGLRWLGSLVYMGGCI | inactive
140 | VICFAARALVYC | inactive
141 | VICIKEEEG | inactive
142 | VIDEYQSVICGYLIRGWHAS | 1.79 ± 0.088
143 | VIDVFSRDLSMLIFSFGHMK | 1.12 ± 0.089
144 | VIGVCFSKFWWNTHDTRSDS | 0.665 ± 0.23
145 | VIKTLVSWTYISCRLN | inactive
146 | VIKTTNNQ | 1.09 ± 0.11
147 | VILATAYLASNLYPVCSLIS | inactive
148 | VILVFIFRYLHTPSGSSGAR | inactive
149 | VIMYHMKFDNEIWVMHLLRN | inactive
150 | VIRNYTIEIMWVWDQKADVQ | inactive
151 | VITGLIMMLNCIGFVFRGLA | inactive
152 | VITIAIELLGVLFVCIGTIV | inactive
153 | VIVKKLY | inactive
154 | VKDGTLCWCRAPFRCCRMPI | -0.426 ± 1.1
155 | VKNIGS | inactive
156 | VKNVIRGIKAQKVGGDESLC | inactive
157 | VKPLSRY | inactive
158 | VKPSLF | -0.567 ± 1
159 | VKTESEVLLSRMSTYSWENA | 1.23 ± 0.17
160 | VKVES | -0.195 ± 1.1
